Assay [1] has as its target hMPV pre-fusion F protein (A2 strain; A185P, A113C/A339C, RRRR furin site) (human metapneumovirus, A2 strain) (UniProt Q6WB98). Kind of assay: cryo-EM structure.
Assay [2] shares this target. In words: SEC. Background: SEC sorts molecules by how far they enter the pores of the column.

A word on the stoichiometry N: it is the number of molecules, sites or subunits per partner or assembly.

As to “hMPV pre-fusion F protein (A2 strain; A185P, A113C/A339C, RRRR furin site) (from UniProt Q6WB98 19-539) (natural protein)”, the stoichiometry N turned out to be 2 in assay [1] and 3 in assay [2].

The values above are taken from publication PMC10527986.
